According to patent publication US20240182536A1 (MURAL ONCOLOGY, published 2024):

Columns and labels:
[1] = molecular target: T1, IL-18 receptor (IL-18Rα and IL-18Rβ) (UniProt Q13478 19-541; O95256 20-599, limits assumed); assay: cell-based or functional assay
T1 sequence (looked up) 1: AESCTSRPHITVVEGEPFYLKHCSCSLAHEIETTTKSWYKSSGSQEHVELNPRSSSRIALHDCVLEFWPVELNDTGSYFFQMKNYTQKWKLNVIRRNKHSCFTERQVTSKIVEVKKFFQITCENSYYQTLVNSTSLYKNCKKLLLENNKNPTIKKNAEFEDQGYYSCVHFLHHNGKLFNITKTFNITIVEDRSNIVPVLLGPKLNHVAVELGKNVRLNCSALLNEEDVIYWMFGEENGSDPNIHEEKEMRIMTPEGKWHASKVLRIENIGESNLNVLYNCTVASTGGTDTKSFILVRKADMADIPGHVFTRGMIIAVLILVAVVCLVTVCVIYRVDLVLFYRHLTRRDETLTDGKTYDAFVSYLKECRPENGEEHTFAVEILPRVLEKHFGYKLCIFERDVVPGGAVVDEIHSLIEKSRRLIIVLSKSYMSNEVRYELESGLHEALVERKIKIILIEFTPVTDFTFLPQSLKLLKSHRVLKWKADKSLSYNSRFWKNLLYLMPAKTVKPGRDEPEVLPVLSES
T1 sequence (looked up) 2: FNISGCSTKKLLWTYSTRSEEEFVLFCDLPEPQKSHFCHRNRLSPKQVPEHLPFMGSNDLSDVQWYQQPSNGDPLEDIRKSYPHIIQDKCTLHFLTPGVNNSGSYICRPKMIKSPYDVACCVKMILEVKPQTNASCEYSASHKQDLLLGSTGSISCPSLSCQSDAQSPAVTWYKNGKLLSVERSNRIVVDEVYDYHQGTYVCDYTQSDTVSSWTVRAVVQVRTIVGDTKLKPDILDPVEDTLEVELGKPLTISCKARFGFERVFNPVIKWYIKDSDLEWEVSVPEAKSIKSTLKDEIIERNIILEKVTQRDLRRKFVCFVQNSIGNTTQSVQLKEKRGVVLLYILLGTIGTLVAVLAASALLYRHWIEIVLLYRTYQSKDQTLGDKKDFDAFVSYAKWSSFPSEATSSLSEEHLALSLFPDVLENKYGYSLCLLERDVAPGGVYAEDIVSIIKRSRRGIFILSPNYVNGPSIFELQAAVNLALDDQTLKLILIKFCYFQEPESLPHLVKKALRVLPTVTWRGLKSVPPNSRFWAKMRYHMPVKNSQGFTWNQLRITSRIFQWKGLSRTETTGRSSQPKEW

[2] = molecular target: T2, human IL-18 binding protein (IL-18BP) (human, UniProt O95998 31-194); assay: cell-based or functional assay
T2 sequence (looked up): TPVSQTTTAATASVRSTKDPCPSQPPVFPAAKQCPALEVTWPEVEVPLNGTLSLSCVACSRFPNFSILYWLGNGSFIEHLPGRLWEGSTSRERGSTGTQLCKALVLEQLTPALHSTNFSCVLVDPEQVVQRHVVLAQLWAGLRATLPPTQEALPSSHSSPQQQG

[3] = molecular target: T3, IL-18 receptors on HEK-Blue IL-18 reporter cells (InvivoGen) (UniProt Q13478 19-541; O95256 20-599); assay: cell-based or functional assay
T3 sequence (looked up) 1: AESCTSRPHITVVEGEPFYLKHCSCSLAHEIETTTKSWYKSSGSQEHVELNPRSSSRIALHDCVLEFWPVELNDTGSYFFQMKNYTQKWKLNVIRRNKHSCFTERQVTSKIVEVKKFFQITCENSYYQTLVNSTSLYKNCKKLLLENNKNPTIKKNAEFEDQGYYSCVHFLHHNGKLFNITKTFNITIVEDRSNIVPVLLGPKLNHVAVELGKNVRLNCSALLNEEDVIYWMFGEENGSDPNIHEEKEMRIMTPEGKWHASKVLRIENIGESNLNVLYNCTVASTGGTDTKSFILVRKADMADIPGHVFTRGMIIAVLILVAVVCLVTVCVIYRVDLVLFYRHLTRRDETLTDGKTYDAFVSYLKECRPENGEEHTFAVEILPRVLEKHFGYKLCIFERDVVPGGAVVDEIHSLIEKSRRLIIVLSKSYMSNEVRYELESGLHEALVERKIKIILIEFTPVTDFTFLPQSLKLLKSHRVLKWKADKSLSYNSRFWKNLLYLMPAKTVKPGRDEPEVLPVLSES
T3 sequence (looked up) 2: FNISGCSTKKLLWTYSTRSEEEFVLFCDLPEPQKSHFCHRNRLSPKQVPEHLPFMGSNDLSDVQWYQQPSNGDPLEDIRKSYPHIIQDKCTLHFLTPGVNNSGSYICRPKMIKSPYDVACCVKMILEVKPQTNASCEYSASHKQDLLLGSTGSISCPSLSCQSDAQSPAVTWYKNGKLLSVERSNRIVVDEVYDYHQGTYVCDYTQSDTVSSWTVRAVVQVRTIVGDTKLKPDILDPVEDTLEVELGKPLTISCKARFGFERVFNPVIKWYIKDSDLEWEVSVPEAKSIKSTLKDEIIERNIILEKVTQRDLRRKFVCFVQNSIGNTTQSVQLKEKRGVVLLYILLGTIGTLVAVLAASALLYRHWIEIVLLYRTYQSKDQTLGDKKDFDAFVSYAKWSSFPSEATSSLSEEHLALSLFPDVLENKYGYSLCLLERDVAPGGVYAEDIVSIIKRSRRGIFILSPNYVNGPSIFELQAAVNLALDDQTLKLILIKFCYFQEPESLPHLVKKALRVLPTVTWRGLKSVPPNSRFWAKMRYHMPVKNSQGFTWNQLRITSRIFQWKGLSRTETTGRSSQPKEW

[4] = molecular target: T2, human IL-18 binding protein (IL-18BP); assay: cell-based or functional assay; remark: listed apart in the source
[5] = molecular target: T1, IL-18 receptor (IL-18Rα and IL-18Rβ); assay: cell-based or functional assay; remark: listed apart in the source
[6] = molecular target: T4, human IL-18 receptor alpha (IL-18Rα) (human, UniProt Q13478 19-329, limits assumed); assay: Octet BLI
T4 construct: also called hu IL-18Ra; IL-18R alpha
T4 sequence (looked up): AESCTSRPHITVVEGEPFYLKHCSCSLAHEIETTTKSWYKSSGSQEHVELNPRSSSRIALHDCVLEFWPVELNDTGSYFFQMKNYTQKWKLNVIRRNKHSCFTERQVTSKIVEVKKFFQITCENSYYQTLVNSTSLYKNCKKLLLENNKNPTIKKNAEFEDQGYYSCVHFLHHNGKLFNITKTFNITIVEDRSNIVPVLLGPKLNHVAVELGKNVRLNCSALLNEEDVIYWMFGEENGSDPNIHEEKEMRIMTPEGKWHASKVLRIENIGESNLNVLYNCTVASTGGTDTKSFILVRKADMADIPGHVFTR
Description: (§1) Octet 96red instrument was used to determine affinities of IL18 proteins to BP or receptors. 5-10 ug/ml analyte proteins were used for loading on Sartorius tips (AHC or SA). […] 120-180 s loading, 200 s association and 800 s dissociation were used for kinetics. 3-7 data points were used to calculate affinities.

[7] = molecular target: T2, human IL-18 binding protein (IL-18BP); assay: Octet BLI
Description: as §1

[8] = molecular target: T5, human IL-18R alpha/beta pair (IL-18Rab) (human, UniProt Q13478 19-329; O95256 20-356); assay: Octet BLI
T5 construct: also called hu IL-18Rab
T5 sequence (looked up) 1: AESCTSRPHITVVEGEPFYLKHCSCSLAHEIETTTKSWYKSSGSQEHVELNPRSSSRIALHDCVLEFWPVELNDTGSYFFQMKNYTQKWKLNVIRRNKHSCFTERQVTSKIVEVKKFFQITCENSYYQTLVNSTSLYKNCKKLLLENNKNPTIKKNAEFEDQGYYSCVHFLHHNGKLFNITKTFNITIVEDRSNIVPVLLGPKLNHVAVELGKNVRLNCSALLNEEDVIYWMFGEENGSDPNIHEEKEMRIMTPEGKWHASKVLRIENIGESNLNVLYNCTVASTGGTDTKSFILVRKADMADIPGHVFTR
T5 sequence (looked up) 2: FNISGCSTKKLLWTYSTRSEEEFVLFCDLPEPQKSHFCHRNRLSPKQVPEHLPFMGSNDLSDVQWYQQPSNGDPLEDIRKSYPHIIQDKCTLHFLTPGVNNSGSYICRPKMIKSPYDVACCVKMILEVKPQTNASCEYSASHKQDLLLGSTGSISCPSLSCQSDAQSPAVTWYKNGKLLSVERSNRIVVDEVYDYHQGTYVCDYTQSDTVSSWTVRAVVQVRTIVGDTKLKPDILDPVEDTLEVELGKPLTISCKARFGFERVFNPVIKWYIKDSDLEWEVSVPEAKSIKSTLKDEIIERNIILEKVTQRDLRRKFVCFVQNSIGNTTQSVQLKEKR
Description: as §1

[9] = molecular target: T3, IL-18 receptors on HEK-Blue IL-18 …; assay: cell-based or functional assay; remark: listed apart in the source
[10] = molecular target: T2, human IL-18 binding protein (IL-18BP); assay: cell-based or functional assay; remark: listed apart in the source
[11] = molecular target: T3, IL-18 receptors on HEK-Blue IL-18 …; assay: cell-based or functional assay; remark: listed apart in the source
[12] = molecular target: T2, human IL-18 binding protein (IL-18BP); assay: cell-based or functional assay; remark: listed apart in the source
[13] = molecular target: T6, IL-18 receptors on HEK-Blue IL-18 reporter cells (UniProt Q13478 19-541; O95256 20-599, limits assumed); assay: cell-based or functional assay
T6 sequence (looked up) 1: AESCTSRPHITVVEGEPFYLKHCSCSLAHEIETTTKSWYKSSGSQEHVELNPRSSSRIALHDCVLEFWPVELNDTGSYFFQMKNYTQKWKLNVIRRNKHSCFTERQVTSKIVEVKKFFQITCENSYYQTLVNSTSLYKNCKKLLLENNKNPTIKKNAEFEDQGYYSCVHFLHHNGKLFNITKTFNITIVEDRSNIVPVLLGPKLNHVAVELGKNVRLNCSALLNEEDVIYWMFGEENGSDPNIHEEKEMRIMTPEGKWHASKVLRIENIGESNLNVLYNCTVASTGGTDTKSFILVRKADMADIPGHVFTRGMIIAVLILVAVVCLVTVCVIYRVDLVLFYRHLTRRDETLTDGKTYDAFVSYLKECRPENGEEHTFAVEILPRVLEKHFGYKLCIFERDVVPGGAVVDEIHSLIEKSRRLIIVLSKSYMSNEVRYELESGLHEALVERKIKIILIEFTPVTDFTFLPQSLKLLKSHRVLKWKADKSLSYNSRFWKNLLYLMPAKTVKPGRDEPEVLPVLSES
T6 sequence (looked up) 2: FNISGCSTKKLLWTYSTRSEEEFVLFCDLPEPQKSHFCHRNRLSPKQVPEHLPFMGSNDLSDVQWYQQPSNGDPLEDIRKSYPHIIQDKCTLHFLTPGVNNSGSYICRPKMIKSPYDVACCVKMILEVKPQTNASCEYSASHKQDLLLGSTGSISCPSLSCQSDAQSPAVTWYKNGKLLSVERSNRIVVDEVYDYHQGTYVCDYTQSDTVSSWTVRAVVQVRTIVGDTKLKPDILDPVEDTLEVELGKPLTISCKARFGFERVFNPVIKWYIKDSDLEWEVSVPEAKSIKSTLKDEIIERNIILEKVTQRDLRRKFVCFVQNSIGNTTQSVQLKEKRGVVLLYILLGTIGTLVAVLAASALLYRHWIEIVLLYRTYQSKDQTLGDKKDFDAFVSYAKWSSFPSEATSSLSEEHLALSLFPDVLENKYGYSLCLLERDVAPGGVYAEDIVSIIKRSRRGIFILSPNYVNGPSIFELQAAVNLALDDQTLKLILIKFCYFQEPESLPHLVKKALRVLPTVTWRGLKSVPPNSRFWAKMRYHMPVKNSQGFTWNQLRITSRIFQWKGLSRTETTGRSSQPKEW

[14] = molecular target: T7, human IL-18 binding protein (human, UniProt O95998 31-194); assay: cell-based or functional assay
T7 sequence (looked up): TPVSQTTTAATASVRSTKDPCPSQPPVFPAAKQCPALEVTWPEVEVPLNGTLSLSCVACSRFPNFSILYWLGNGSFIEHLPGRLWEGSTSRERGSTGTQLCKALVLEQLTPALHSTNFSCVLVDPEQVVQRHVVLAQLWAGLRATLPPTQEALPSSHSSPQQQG

Row | Binder | EC50 pM, IFN gamma expression in PBMCs, no BP [1] | EC50 pM, IFN gamma expression in PBMCs, + 300 nM BP [2] | HEK-Blue Ec50 (pM), -IL-18BP [3] | HEK-Blue Ec50 (pM), +IL-18BP (50 nM) [4] | EC50 pM, IFN gamma expression in PBMCs [5] | Kd [6] | binding result [7] | Kd [8] | HEK-Blue Activity Assay Ec50 (pM), -hu IL-18BP [9] | HEK-Blue Activity Assay Ec50 (pM), +300 nM hu IL-18BP [10] | HEK-Blue EC50 pM, NO BP (50 nM BP run) [11] | HEK-Blue EC50 pM, NO BP (300 nM BP run) [11] | Fold Change (BP/NO BP), 50 nM BP [12] | Fold Change (BP/NO BP), 300 nM BP [12] | HEK-Blue EC50 pM, +50 nM BP [12] | HEK-blue EC50 (pM) + 300 nM BP [12] | HEK-blue EC50 (pM) - IL-18BP [13] | HEK-blue EC50 (pM) + 300 nM IL-18BP [14]
1 | Comparator 1 (human IL-18 variant M51K, K53S, Q56L, P57A, M60L, S105D, D110S, N111R) (ligand) YFGKLESKLSVIRNLNDQVLFIDQGNRPLFEDMTDSDCRDNAPRTIFIISKYSDSLARGLAVTISVKCEKISTLSCENKIISFKEMNPPDNIKDTKSDIIFFQRDVPGHSRKMQFESSSYEGYFLACEKERDLFKLILKKEDELGDRSIMFTVQNED | 1.22 pM | 1.82 pM | 0.15 pM | 0.22 pM | 0.093 pM | 16 nM | no binding | 0.43 nM | 0.08 pM | 0.09 pM | 0.02 pM | 0.13 pM | 2.5 fold | 0.83 fold | 0.04 pM | 0.11 pM | – | –
2 | Comparator 1-monospecific KiH (Fc fusion) YFGKLESKLSVIRNLNDQVLFIDQGNRPLFEDMTDSDCRDNAPRTIFIISKYSDSLARGLAVTISVKCEKISTLSCENKIISFKEMNPPDNIKDTKSDIIFFQRDVPGHSRKMQFESSSYEGYFLACEKERDLFKLILKKEDELGDRSIMFTVQNED | – | – | – | – | – | – | – | – | – | – | – | – | – | – | – | – | 0.03 pM | 0.03 pM
